Residue numbers refer to the chain shown, from its start. Numbers in names are those of the source. Values belong to the binder of their own block, whether it stands above or below them.
Tests used:
mouse FcRn [1] = target: T1, mouse FcRn (mouse, UniProt Q61559 22-297); experiment: SPR (Biacore), antibody captured by protein L, mouse FcRn as analyte, pH 6.0, 25 C
T1 construct: also called mFcRn
Description: (§1) Next, the binding to mFcRn was evaluated according to Reference Example 4-4.
(§2) Kinetic analysis was conducted on mouse FcRn and each antibody using Biacore T100, Biacore T200, Biacore A100, and Biacore 4000 (GE Healthcare Japan Corp.). An appropriate amount of protein L (ACTIGEN) was immobilized on Sensor Chip CM4 (GE Healthcare Japan Corp.) by the amine coupling method. The antibody of interest was captured onto the chip. Next, a diluted FcRn solution or a running buffer (as a control solution) was injected thereto so that the mouse FcRn was allowed to interact with the antibody captured on the sensor chip. The running buffer used was 50 mmol/L sodium phosphate, 150 mmol/L NaCl, and 0.05% (w/v) Tween 20 (pH 6.0), and each buffer was also used for diluting FcRn. 10 mmol/L glycine-HCl (pH 1.5) was used to regenerate the chip. The assay was conducted at 25° C. for all samples. From the sensorgram obtained by the assay, an association rate constant ka (1/Ms) and a dissociation rate constant […] (1/s) were calculated as kinetic parameters. The KD (M) of each antibody for mouse FcRn was calculated on the basis of the parameters. Biacore Evaluation Software (GE Healthcare Japan Corp.) was used in the calculation of each parameter.

[2] = target: T2, mouse FcgRII extracellular domain, C-terminal His tag (mouse, UniProt P08101 30-210); experiment: SPR (Biacore), antibody captured on chip, His-tagged mFcgR extracellular domain as analyte, 25 C
T2 construct: extracellular domain; also called mFcgRII; mFcγRII; not shown: C-terminal His tag
T2 sequence (looked up): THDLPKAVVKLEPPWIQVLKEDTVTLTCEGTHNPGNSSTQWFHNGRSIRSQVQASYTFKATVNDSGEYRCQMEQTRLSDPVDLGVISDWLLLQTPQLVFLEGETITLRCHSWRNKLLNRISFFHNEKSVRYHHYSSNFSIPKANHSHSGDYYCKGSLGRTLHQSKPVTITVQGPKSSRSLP
Description: (§3) The two types of bispecific antibodies (MRAH-mIgG1mP3/MRAL-mk1//H54-mIgG1mN3/L28-mk1 and MRAH-mIgG1mP4/MRAL-mk1//H54-mIgG1mN4/L28-mk1) prepared by mouse IgG-type Fab arm exchange were tested for their binding to mouse FcgR and mouse FcRn according to Reference Example 4-3. Also, MRAH-mIgG1/MRAL-mk1 was prepared according to Reference Example 1 and assayed as a control.

[3] = target: T3, mouse FcgRIII extracellular domain, C-terminal His tag (mouse, UniProt P08508 31-215); experiment: as above
T3 construct: extracellular domain; also called mFcgRIII; mFcγRIII; not shown: C-terminal His tag
T3 sequence (looked up): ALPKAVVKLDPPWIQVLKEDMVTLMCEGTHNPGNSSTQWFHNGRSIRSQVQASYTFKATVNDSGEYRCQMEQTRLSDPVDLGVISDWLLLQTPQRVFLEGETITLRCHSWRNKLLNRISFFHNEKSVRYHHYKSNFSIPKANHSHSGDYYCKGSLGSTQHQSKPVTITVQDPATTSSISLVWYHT
Description: as §3

mouse FcRn [4] = target: T1, mouse FcRn; experiment: SPR (Biacore); relative to mIgG1
Description: as §1, §2

[5] = target: T4, mouse FcgRI extracellular domain, C-terminal His tag (mouse, UniProt P26151 25-297); experiment: SPR (Biacore), antibody captured on chip, mFcgR extracellular domain as analyte
T4 construct: extracellular domain; also called mFcgRI; mFcγRI; not shown: C-terminal His tag
T4 sequence (looked up): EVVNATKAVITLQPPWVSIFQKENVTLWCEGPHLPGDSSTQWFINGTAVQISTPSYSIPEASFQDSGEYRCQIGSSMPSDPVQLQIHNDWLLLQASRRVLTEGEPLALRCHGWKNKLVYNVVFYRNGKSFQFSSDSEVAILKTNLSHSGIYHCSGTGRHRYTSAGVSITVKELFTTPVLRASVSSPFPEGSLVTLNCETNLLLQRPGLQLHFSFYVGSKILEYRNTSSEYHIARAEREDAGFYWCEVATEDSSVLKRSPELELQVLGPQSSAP
Description: as §3

[6] = target: T5, mouse FcgRIV extracellular domain, C-terminal His tag (mouse, UniProt A0A0B4J1G0 21-203); experiment: as above
T5 construct: also called mFcgRIV; mFcγRIV
T5 sequence: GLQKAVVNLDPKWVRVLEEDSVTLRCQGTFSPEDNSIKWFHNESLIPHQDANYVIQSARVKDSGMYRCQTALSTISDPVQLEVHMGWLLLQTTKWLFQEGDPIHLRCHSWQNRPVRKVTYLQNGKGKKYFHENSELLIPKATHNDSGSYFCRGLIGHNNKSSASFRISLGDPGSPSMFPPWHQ
Description: as §3

[7] = target: T2, mouse FcgRII extracellular domain, …; experiment: SPR (Biacore); binding activity relative to naturally occurring mIgG1
Description: as §3

[8] = target: T3, mouse FcgRIII extracellular domain, …; experiment: as above
Description: as §3

mouse FcRn [9] = target: T1, mouse FcRn; experiment: SPR (Biacore); relative to mIgG1 (the reference itself)
Description: as §1, §2

[10] = target: T2, mouse FcgRII extracellular domain, …; experiment: as above
Description: as §3

[11] = target: T3, mouse FcgRIII extracellular domain, …; experiment: as above
Description: as §3

T1 sequence (Q61559 22-297): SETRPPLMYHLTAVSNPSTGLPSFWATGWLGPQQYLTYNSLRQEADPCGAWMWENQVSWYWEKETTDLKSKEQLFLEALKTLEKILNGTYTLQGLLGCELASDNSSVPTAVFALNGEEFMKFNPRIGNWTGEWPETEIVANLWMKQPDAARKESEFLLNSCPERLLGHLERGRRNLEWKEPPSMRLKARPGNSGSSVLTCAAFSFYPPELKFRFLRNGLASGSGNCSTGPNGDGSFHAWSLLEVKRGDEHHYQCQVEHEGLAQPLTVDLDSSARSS

Kd (mouse FcRn [1]): 2100 nM
Kd [2]: 670 nM
Kd [3]: 670 nM
fold KD (mouse FcRn [4]): 1.2 fold
binding result [5]: no binding
binding result [6]: no binding
KD fold mFcgRII [7]: 1.2 fold
KD fold mFcgRIII [8]: 1.2 fold
B1: MRAH-mIgG1mP3/MRAL-mk1//H54-mIgG1mN3/L28-mk1 (bispecific antibody)
heavy 1: QVQLQESGPGLVRPSQTLSLTCTVSGYSITSDHAWSWVRQPPGRGLEWIGYISYSGITTYNPSLKSRVTMLRDTSKNQFSLRLSSVTAADTAVYYCARSLARTTAMDYWGQGSLVTVSSAKTTPPSVYPLAPGSAAQTNSMVTLGCLVKGYFPEPVTVTWNSGSLSSGVHTFPAVLQSDLYTLSSSVTVPSSTWPSETVTCNVAHPASSTKVDKKIVPRDCGCKPCICTVPEVSSVFIFPPKPKDVLTITLTPKVTCVVVDISKDDPEVQFSWFVDDVEVHTAQTQPREEQFNSTFRSVSELPIMHQDWLNGKEFKCRVNSAAFPAPIEKTISKTKGRPKAPQVYTIPPPKEQMAKDKVSLTCMITDFFPEDITVEWQWNGQPAENYKNTQPIMKTDGSYFVYSKLNVQKSNWEAGNTFTCSVLHEGLHNHHTEKSLSHSPGK
light 1: DIQMTQSPSSLSASVGDRVTITCRASQDISSYLNWYQQKPGKAPKLLIYYTSRLHSGVPSRFSGSGSGTDFTFTISSLQPEDIATYYCQQGNTLPYTFGQGTKVEIKRADAAPTVSIFPPSSEQLTSGGASVVCFLNNFYPKDINVKWKIDGSERQNGVLNSWTDQDSKDSTYSMSSTLTLTKDEYERHNSYTCEATHKTSTSPIVKSFNRNEC
heavy 2: QVQLQESGPGLVKPSETLSLTCAVSGYSISDDQAWSWVRQPPGEGLEWIGYISYSGITNYNPSLKGRVTISRDTSKNQFSLKLSSVTAADTAAYYCARSLARTTAMDYWGEGTLVTVSSAKTTPPSVYPLAPGSAAQTNSMVTLGCLVKGYFPEPVTVTWNSGSLSSGVHTFPAVLQSDLYTLSSSVTVPSSTWPSETVTCNVAHPASSTKVDKKIVPRDCGCKPCICTVPEVSSVFIFPPKPKDVLTITLTPKVTCVVVDISKDDPEVQFSWFVDDVEVHTAQTQPREEQFNSTFRSVSELPIMHQDWLNGKEFKCRVNSAAFPAPIEKTISKTKGRPKAPQVYTIPPPKEQMAKDKVSLTCMITDFFPEDITVEWQWNGQPAENYKNTQPIMDTDGSYFVYSDLNVQKSNWEAGNTFTCSVLHEGLHNHHTEKSLSHSPGK
light 2: B1 light 1 with R18S, R24Q, K45E, T51G, R53E, Q79E, P80A, I83A, T93S, K107E
notes: Product of mouse IgG1-type Fab arm exchange (D399K on one H chain, K409D on the other); formation efficiency 89.2%, so the preparation may hold some homo variant; also called mIgG1mP3/mN3; mP3/mN3

Kd (mouse FcRn [1]): 2500 nM
fold KD (mouse FcRn [9]): 1 fold
Kd [2]: 820 nM
Kd [3]: 790 nM
binding result [5]: no binding
binding result [6]: no binding
KD fold mFcgRII [10]: 1 fold
KD fold mFcgRIII [11]: 1 fold
B2: MRAH-mIgG1/MRAL-mk1 (antibody)
heavy: B1 heavy 1 with K395D
light: B1 light 1
notes: Control with mouse IgG1 H chain constant region and mouse kappa constant region; also called naturally occurring mIgG1

Kd (mouse FcRn [1]): 1900 nM
Kd [2]: 670 nM
Kd [3]: 680 nM
fold KD (mouse FcRn [4]): 1.3 fold
binding result [5]: no binding
binding result [6]: no binding
KD fold mFcgRII [7]: 1.2 fold
KD fold mFcgRIII [8]: 1.2 fold
B3: MRAH-mIgG1mP4/MRAL-mk1//H54-mIgG1mN4/L28-mk1 (bispecific antibody)
heavy 1: B1 heavy 1 with K395R
light 1: B1 light 1
heavy 2: B1 heavy 2 with D405E
light 2: B1 light 1 with R18S, R24Q, K45E, T51G, R53E, Q79E, P80A, I83A, T93S, K107E
notes: Product of mouse IgG1-type Fab arm exchange (D399R on one H chain, K409E on the other); formation efficiency 89.9%, so the preparation may hold some homo variant; also called mIgG1mP4/mN4; mP4/mN4
